The values that follow come from US20230295310A1 (ABCELLERA BIOLOGICS, published 2023).

Positions count from the first letter of the chain named.

The target in this test is EGFR on HeLa cells (UniProt P00533 25-1210, limits assumed). The test can be described thus: cell-based or functional assay.

B1: GOMP001_bsAb_042 (bispecific antibody, human IgG1, kappa, L234A L235A)
heavy 1: EVQLVESGGGLVKTGGSLRLSCVASGFSFKKAWMNWVRKAPGKGLEWVGRIKRNTDGGPADYAAEVKGRFTLSRDDSKKTLYLQMNSLKTEDTAVYYCTTLDSSSWYVGYYYMDVWGKGTTVTVSSASTKGPSVFPLAPSSKSTSGGTAALGCLVADYFPEPVTVSWNSGALTSGVHTFPAVLQSSGLYSLSSVVTVPSSSLGTQTYICNVNHKPSNTKVDEKVEPKSCDKTHTCPPCPAPEAAGGPSVFLFPPKPKDTLMISRTPEVTCVVVDVSHEDPEVKFNWYVDGVEVHNAKTKPREEQYNSTYRVVSVLTVLHQDWLNGKEYKCKVSNKALPAPIEKTISKAKGQPREPQVYTLPPSREEMTDNQVSLTCLVKGFYPSDIAVEWESNGQPENNYKTTPPVLMSDGSFFLASKLTVDKSRWQQGNVFSCSVMHEALHNHYTQKSLSLSPG
light 1: RIQMTQSPSSVSASVGDRVIITCRASQDINNWLAWYLDRPGKAPKLLIYAASSLQSGVPSRFSGSGSGTDFTLTIGSLQPEDFATYYCQQAHSLPITFGQGTRLEIQRTVAAPSVFIFPPSDKQLKSGTARVVCLLNNFYPREAKVQWKVDNALQSGNSQESVTEQDSKDSTYSLSSTLTLSKADYEKHKVYACEVTHQGLSSPVTKSFNRGEC
heavy 2: QVQLVQSGAEVKKPGASVKVSCKASGYTFTSHWMHWVRYAPGQGLEWIGEFNPSNGRTNYNEKFKSKATMTVDTSTNTAYMELSSLRSEDTAVYYCASRDYDYDGRYFDYWGRGTLVTVSSASTKGPSVFPLAPSSKSTSGGTAALGCLVKDYFPEPVTVSWNSGALTSGVHTFPAVLQSSGLYSLSSVVTVPSSSLGTQTYICNVNHKPSNTKVDKKVEPKSCDKTHTCPPCPAPEAAGGPSVFLFPPKPKDTLMISRTPEVTCVVVDVSHEDPEVKFNWYVDGVEVHNAKTKPREEQYNSTYRVVSVLTVLHQDWLNGKEYKCKVSNKALPAPIEKTISKAKGQPRRPRVYTLPPSREEMTKNQVSLVCLVKGFYPSDIAVEWESNGQPENNYKTTPPVLDSDGSFFLYSVLTVDKSRWQQGNVFSCSVMHEALHNHYTQKSLSLSPG
light 2: DIQMTQSPSSLSASVGDRVTITCSASSSVTYMYWYQRKPGDAPKLLIYDTSNLASGVPSRFSGSGSGTDYTFTISSLQPEDIATYYCQQWSSHIFTFGQGTKVEIKRTVAAPSVFIFPPSDEQLKSGTASVVCLLNNFYPREAKVQWKVDNALQSGNSQESVTEQDSKDSTYSLSSTLTLSKADYEKHKVYACEVTHQGLSSPVTKSFNRGEC
For the molecule B1, the Max killing % was 84.8% and the “X… HeLa EC50” value was 0.0341 nM.

B2: GOMP001_bsAb_044 (bispecific antibody, human IgG1, kappa, L234A L235A)
heavy 1: B1 heavy 1 with P59T, Y82F, W106Y
light 1: B1 light 1 with I20T, L37Q, R39K, A50T, Q107K
heavy 2: B1 heavy 2
light 2: B1 light 2
Take B2: the Max killing % came to 84.1% and the “X… HeLa EC50” value was 0.0201 nM.

B3: GOMP001_bsAb_043 (bispecific antibody, human IgG1, kappa, L234A L235A)
heavy 1: QVQLVQSGAEVKKPGASVKVSCKASGYTFTSHWMHWVRKAPGQGLEWIGEFNPSNGRTNYNEEFKSKATMTVDTSTNTAYMELSSLRSEDTAVYYCASRDYDYDGRYFDYWGQGTLVTVSSASTKGPSVFPLAPSSKSTSGGTAALGCLVADYFPEPVTVSWNSGALTSGVHTFPAVLQSSGLYSLSSVVTVPSSSLGTQTYICNVNHKPSNTKVDEKVEPKSCDKTHTCPPCPAPEAAGGPSVFLFPPKPKDTLMISRTPEVTCVVVDVSHEDPEVKFNWYVDGVEVHNAKTKPREEQYNSTYRVVSVLTVLHQDWLNGKEYKCKVSNKALPAPIEKTISKAKGQPREPQVYTLPPSREEMTDNQVSLTCLVKGFYPSDIAVEWESNGQPENNYKTTPPVLMSDGSFFLASKLTVDKSRWQQGNVFSCSVMHEALHNHYTQKSLSLSPG
light 1: B1 light 2 with D1R, R37D, D41K, E122K, S130R
heavy 2: EVQLVESGGGLVKTGGSLRLSCVASGFSFKKAWMNWVRYAPGKGLEWVGRIKRNTDGGTADYAARVKGRFTLSRDDSKKTLFLQMNSLKTEDTAVYYCTTLDSSSYYVGYYYMDVWGRGTTVTVSSASTKGPSVFPLAPSSKSTSGGTAALGCLVKDYFPEPVTVSWNSGALTSGVHTFPAVLQSSGLYSLSSVVTVPSSSLGTQTYICNVNHKPSNTKVDKKVEPKSCDKTHTCPPCPAPEAAGGPSVFLFPPKPKDTLMISRTPEVTCVVVDVSHEDPEVKFNWYVDGVEVHNAKTKPREEQYNSTYRVVSVLTVLHQDWLNGKEYKCKVSNKALPAPIEKTISKAKGQPRRPRVYTLPPSREEMTKNQVSLVCLVKGFYPSDIAVEWESNGQPENNYKTTPPVLDSDGSFFLYSVLTVDKSRWQQGNVFSCSVMHEALHNHYTQKSLSLSPG
light 2: B1 light 1 with R1D, I20T, L37Q, D38R, R39K, K42D, A50T, Q107K, K123E, R131S
Regarding B3, the Max killing % worked out at 76.2% and the “X… HeLa EC50” value is 0.102 nM.

B4: GOMP001_bsAb_045 (bispecific antibody, human IgG1, kappa, L234A L235A)
heavy 1: B3 heavy 1
light 1: B1 light 2 with D1R, R37D, D41K, E122K, S130R
heavy 2: EVQLVESGGGLVQPGRSLRLSCATSGFTFADYTMHWVRYAPGKGLEWVSGISWNSGSIDYADRVKGRFTISRDNAKKSLYLQMNSLRAEDTALYFCAKDSSGYGHYYFYYLDVWGRGTTVTVSSASTKGPSVFPLAPSSKSTSGGTAALGCLVKDYFPEPVTVSWNSGALTSGVHTFPAVLQSSGLYSLSSVVTVPSSSLGTQTYICNVNHKPSNTKVDKKVEPKSCDKTHTCPPCPAPEAAGGPSVFLFPPKPKDTLMISRTPEVTCVVVDVSHEDPEVKFNWYVDGVEVHNAKTKPREEQYNSTYRVVSVLTVLHQDWLNGKEYKCKVSNKALPAPIEKTISKAKGQPRRPRVYTLPPSREEMTKNQVSLVCLVKGFYPSDIAVEWESNGQPENNYKTTPPVLDSDGSFFLYSVLTVDKSRWQQGNVFSCSVMHEALHNHYTQKSLSLSPG
light 2: not shown
B4: the Max killing % amounted to 69.5% and the “X… HeLa EC50” value was 0.179 nM.

B5: GOMP001_bsAb_049 (bispecific antibody, human IgG1, kappa, L234A L235A)
heavy 1: B3 heavy 1
light 1: B1 light 2 with D1R, R37D, D41K, E122K, S130R
heavy 2: QVQLVESGGGVVQPGRSLRLSCAASGFTFSTYGMHWVRYAPGKGLEWVAVIWYDGSHKYYADRVKGRFTISRDNSKKTLYLQMNSLRAEDTGIYYCARTGISGNMSYFYFDHWGRGILVTVSSASTKGPSVFPLAPSSKSTSGGTAALGCLVKDYFPEPVTVSWNSGALTSGVHTFPAVLQSSGLYSLSSVVTVPSSSLGTQTYICNVNHKPSNTKVDKKVEPKSCDKTHTCPPCPAPEAAGGPSVFLFPPKPKDTLMISRTPEVTCVVVDVSHEDPEVKFNWYVDGVEVHNAKTKPREEQYNSTYRVVSVLTVLHQDWLNGKEYKCKVSNKALPAPIEKTISKAKGQPRRPRVYTLPPSREEMTKNQVSLVCLVKGFYPSDIAVEWESNGQPENNYKTTPPVLDSDGSFFLYSVLTVDKSRWQQGNVFSCSVMHEALHNHYTQKSLSLSPG
light 2: not shown
In the case of B5, the Max killing % amounted to 55.9%.

B6: GOMP001_bsAb_046 (bispecific antibody, human IgG1, kappa, L234A L235A)
heavy 1: EVQLVESGGGLVQPGRSLRLSCATSGFTFADYTMHWVRKAPGKGLEWVSGISWNSGSIDYADEVKGRFTISRDNAKKSLYLQMNSLRAEDTALYFCAKDSSGYGHYYFYYLDVWGKGTTVTVSSASTKGPSVFPLAPSSKSTSGGTAALGCLVADYFPEPVTVSWNSGALTSGVHTFPAVLQSSGLYSLSSVVTVPSSSLGTQTYICNVNHKPSNTKVDEKVEPKSCDKTHTCPPCPAPEAAGGPSVFLFPPKPKDTLMISRTPEVTCVVVDVSHEDPEVKFNWYVDGVEVHNAKTKPREEQYNSTYRVVSVLTVLHQDWLNGKEYKCKVSNKALPAPIEKTISKAKGQPREPQVYTLPPSREEMTDNQVSLTCLVKGFYPSDIAVEWESNGQPENNYKTTPPVLMSDGSFFLASKLTVDKSRWQQGNVFSCSVMHEALHNHYTQKSLSLSPG
light 1: not shown
heavy 2: B1 heavy 2
light 2: B1 light 2
Take B6: the Max killing % is 92.6% and the “X… HeLa EC50” value was 0.0264 nM.
